From paper PMC7305997 (ACS chemical biology, 2020)
Ends that are not written are not given here.

What was measured:
biotinylated CIB1 = biological target: T1, biotinylated CIB1 (Homo sapiens, UniProt Q99828); experiment: biochemical; type: binding
T1 sequence (Q99828 1-191): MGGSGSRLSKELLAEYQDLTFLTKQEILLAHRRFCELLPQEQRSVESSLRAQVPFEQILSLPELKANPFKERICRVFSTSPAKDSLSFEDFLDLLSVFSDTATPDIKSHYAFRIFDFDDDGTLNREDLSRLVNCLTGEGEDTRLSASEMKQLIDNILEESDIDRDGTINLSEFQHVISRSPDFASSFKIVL

full length human CIB1 = biological target: T2, full length human CIB1 (Homo sapiens, UniProt Q99828); experiment: Isothermal titration calorimetry; details: ITC, 25°C, one site binding model; replicates as for Kd
T2 sequence (Q99828 1-191): T1 sequence (Q99828 1-191)

[1] = biological target: T3, Full length human CIB1 (calcium and integrin binding protein 1), N-terminal hexahistidine tag (human, UniProt Q99828 1-191); experiment: ITC
T3 sequence (looked up): T1 sequence (Q99828 1-191)

Molecule	dH [1] [kcal/mol]	stoichiometry N [1]	also measured
EDGGSFWYGAMKALYG-NH2 [UNC10245092]	–	–	IC50 (biotinylated CIB1): 46 ± 13 nM; Kd (biotinylated CIB1): 46 ± 13 nM; n (binding stoichiometry) (full length human CIB1): 1.1 ± 0.1; ΔH (full length human CIB1): -14.4 ± 2.2 kcal/mol
Ac-FWYGAMKALYG [Acetyl short (Ac-FWYGAMKALYG)]	-14	1.1	Kd [1]: 52.1 nM
EDGGSFWYGGMKALYG [UNC10245092 A5G]	-7.7	1	–
EDGGSFWYGAMKGLYG [UNC10245092 A8G]	-13.8	1	–
EDGGSAWYGAMKALYG [UNC10245092 F1A]	-9.8	0.94	–
EDGGSFWYGAMKAAYG [UNC10245092 L9A]	-8.8	0.99	–
EDGGSFWYGAAKALYG [UNC10245092 M6A]	-8.1	1	–
EDGGSFAYGAMKALYG [UNC10245092 W2A]	-5.9	0.67	–
EDGGSFWAGAMKALYG [UNC10245092 Y3A]	-16.1	1	–
EDGGSFWYGAMKALAG [UNC10245092 Y10A]	-7.1	1.1	–
H-EDGGSFWYGAMKALYG-NH2 [UNC10245092 (NH2-EDGGSFWYGAMKALYG-amide)]	-14.4	1.1	Kd [1]: 29.4 nM
Ac-EDGGSFWYGAMKALYG [Acetyl long (Ac-EDGGSFWYGAMKALYG)]	-16.1	1.1	Kd [1]: 45 nM
